Measurements published in article PMC4551915, “Bacteriophage GIL01 gp7 interacts with host LexA repressor to enhance DNA binding and inhibit RecA-mediated auto-cleavage” (Nucleic Acids Research, 2015).
Residue numbers refer to the chain shown, from its start. Where no end group is shown, it is not given here.

Experiments:
[1] = target: T1, His6-gp7 (Bacillus phage GIL01) (UniProt Q7WSG2); experiment: DNase I footprinting; details: EMSA/footprint: 80 mM NaCl, 25 mM Tris pH 7.5, 5 mM EDTA, 2 mM DTT, 0.1 mg/ml BSA, 0.05 ug/ul poly(dI-dC), room temp; SPR: 25 mM Tris-HCl pH 7.3, 140 mM NaCl …
T1 sequence: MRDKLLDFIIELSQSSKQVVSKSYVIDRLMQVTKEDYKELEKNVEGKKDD

[2] = target: T1, His6-gp7 (Bacillus phage GIL01); experiment: EMSA; details: EMSA/footprint: 80 mM NaCl, 25 mM Tris pH 7.5, 5 mM EDTA, 2 mM DTT, 0.1 mg/ml BSA, 0.05 ug/ul poly(dI-dC), room temp; SPR: 25 mM Tris-HCl pH 7.3, 140 mM NaCl …
[3] = target: T2, His6-LexA (Bacillus thuringiensis LexA repressor) (B. thuringiensis, UniProt A0RH75 1-206); experiment: SPR; Biacore T100, CM5 chip, His-tagged LexA covalently coupled (EDC/NHS, ~2000 RU), no DNA; His-tagged gp7 (1.6-50 nM, 360 s) or gp1 as analyte; 25°C, 30 μl/min, SPR buffer (25 mM Tris-HCl pH 7.3, 140 mM NaCl, 5 mM EDTA, 2 mM DTT, 0.1 mg/ml BSA, 0.005% P20); apparent KD from plot of response against concentration, assuming one gp7 monomer per LexA monomer; details: both partners purified
T2 construct: LexA, SOS transcription repressor of Bacillus thuringiensis; insert defined by nucleotide coordinates 3 624 082 through 3 624 714 in B. cereus strain G9842 (GenBank NC_011772), cloned BamHI-HindIII into pQE-30; also called His-tagged LexA; B. thuringiensis LexA repressor; source: E. coli M15 [pREP4], pQE-30, purified (Ni-NTA); not shown: His6, N-terminal, kept
T2 sequence (looked up): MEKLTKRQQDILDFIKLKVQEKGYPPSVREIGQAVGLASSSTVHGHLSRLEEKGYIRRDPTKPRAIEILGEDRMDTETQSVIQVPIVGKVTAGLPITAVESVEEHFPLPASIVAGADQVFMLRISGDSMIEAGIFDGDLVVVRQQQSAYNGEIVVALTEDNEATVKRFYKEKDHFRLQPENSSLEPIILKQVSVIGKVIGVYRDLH

His6-gp7 = target: T3, His6-gp7 (Bacillus phage GIL01, UniProt Q7WSG2 1-50); experiment: SPR; 300 nM gp7; EMSA/footprint: 80 mM NaCl, 25 mM Tris pH 7.5, 5 mM EDTA, 2 mM DTT, 0.1 mg/ml BSA, 0.05 ug/ul poly(dI-dC), room temp; SPR: 25 mM Tris-HCl pH 7.3, 140 mM NaCl, 5 mM EDTA, 2 mM DTT, 0.1 mg/ml BSA, 0.005% P20, 25 C; details: protein: recombinant; tags: N-terminal His6 (pQE-30); label: 3'-biotin on S1 anchor; 42 bp; 15 nt 5' overhang annealed to S1
T3 chain: T1 sequence

## GTGTGACAAGATATTCCAAGGGTGCTATAATAGGAAATGAGTTAAAAAACGAACAAGCGTTTTATAAGTGTTCGGTTTTTGTAACATAACTGTAATATAAAAACATTTGCATTACTGGTAACTTTCGGGTAATATTGGTAGCAGAGAGGGACAAACGGGACAAATCGAGACACGATACATACTCTCTATACAAGTGAAAAGAAGGTGGTGCATAT (double strand) [P1 footprint probe WT (-39 to +176)]
[1]
  binding: no binding

## CCAAGGGTGCTATAATAGGAAATGAGTTAAAAAACGAACAAGCGTTTTATAAGTGTTCGGTTTTTGTAACATAACTGTAATATAAAAACATTTGCATTACTGGTAACTTTCGGGTAATATTGGTAGCAGAGAGGGACAAACGGGACAAATCGAGACACGATACATACTCTCTATACAAGTGAAAAGAAGGTGGTGCATAT (double strand) [P1 EMSA probe WT (-25 to +176)]
[2]
  binding: no binding

## His6-MRDKLLDFIIELSQSSKQVVSKSYVIDRLMQVTKEDYKELEKNVEGKKDD (natural protein) [His6-gp7 (bacteriophage GIL01 gp7, product of ORF7)]
[3]
  Kd: 17.7 nM

B1: SPR Wt (dinBox1+dinBox1b) (dsDNA)
DNA 1: GTTACTACTCGAGCGTTAAAAAACGAACAAGCGTTTTATAAGTGTTCGGTTTTTGTA
DNA 2: TACAAAAACCGAACACTTATAAAACGCTTGTTCGTTTTTTAA
DNA 3: CGCTCGAGTAGTAAC
His6-gp7
  binding result: no binding

B2: SPR B12 (dinBox1 double mutant) (dsDNA)
DNA 1: B1 DNA 1 with G25T, G33T
DNA 2: B1 DNA 2 with C25A, C33A
DNA 3: CGCTCGAGTAGTAAC
His6-gp7
  binding result: no binding

B3: SPR B22 (dinBox1b double mutant) (dsDNA)
DNA 1: B1 DNA 1 with G44A, G48A
DNA 2: B1 DNA 2 with C10T, C14T
DNA 3: CGCTCGAGTAGTAAC
His6-gp7
  binding result: no binding

B4: SPR B21 (dinBox1b single mutant) (dsDNA)
DNA 1: B1 DNA 1 with G48A
DNA 2: B1 DNA 2 with C10T
DNA 3: CGCTCGAGTAGTAAC
His6-gp7
  binding result: no binding

B5: SPR B11 (dinBox1 single mutant) (dsDNA)
DNA 1: B1 DNA 1 with G33T
DNA 2: B1 DNA 2 with C25A
DNA 3: CGCTCGAGTAGTAAC
His6-gp7
  binding result: no binding

B6: SPR Ns (non-specific; both boxes mutated) (dsDNA)
DNA 1: B1 DNA 1 with G25T, G33T, G44A, G48A
DNA 2: B1 DNA 2 with C10T, C14T, C25A, C33A
DNA 3: CGCTCGAGTAGTAAC
His6-gp7
  binding result: no binding
